Results: the supplement of paper PMC7125110
± gives the standard error. For some of these results: This sample holds only a part of the variants without activity.

B1: glmS ribozyme (parent)
chain: AUAAAAGCGCCAGAACUACAGAAAUGUAGUUGACGAGGAGGAGGUUUAUCGAAUUUUCGGCGGAUGCCUCCAAA

Experiments:
Conditions in all cases: with glucosamine-6-phosphate
[1] = variants of: B1; assay: kcat; higher = faster cleavage; RNA array
Method in brief: (§1)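 A hybridised Cy3 probe tracked barcoded ribozyme variants, transcribed in situ by E. coli RNA polymerase on sequenced MiSeq chips, at 37 °C. The variants received 40 μM to 10 mM glucosamine-6-phosphate in HEPES/KCl/Mg(OAc)2 buffer. kobs came from decay fits and kcat and KM from weighted Michaelis–Menten fits.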

[2] = variants of: B1; assay: self-cleavage kobs at 640 uM GlcN6P; higher = faster cleavage; RNA array
Method in brief: as §1

[3] = variants of: B1; assay: self-cleavage kobs at 2500 uM GlcN6P; higher = faster cleavage; RNA array
Method in brief: as §1

[4] = variants of: B1; assay: self-cleavage kobs at 10000 uM GlcN6P; higher = faster cleavage; RNA array
Method in brief: as §1

[5] = variants of: B1; assay: self-cleavage kobs at 160 uM GlcN6P; higher = faster cleavage; RNA array
Method in brief: as §1

[6] = variants of: B1; assay: KM; higher = weaker cofactor use; RNA array
Method in brief: as §1

[7] = variants of: B1; assay: self-cleavage kobs at 40 uM GlcN6P; higher = faster cleavage; RNA array
Method in brief: as §1

Row | Variant | kcat [1] | self-cleavage kobs at 640 uM GlcN6P [2] | self-cleavage kobs at 2500 uM GlcN6P [3] | self-cleavage kobs at 10000 uM GlcN6P [4] | self-cleavage kobs at 160 uM GlcN6P [5] | KM [6] | self-cleavage kobs at 40 uM GlcN6P [7]
1 | G37C C70U | 2.69e-05 ± 6.4e-06 s⁻¹ | 2.26e-05 ± 9.4e-06 s⁻¹ | 1.7e-05 ± 5.8e-06 s⁻¹ | 3.18e-05 ± 7.2e-06 s⁻¹ | – | – | –
2 | G13U A42G U45A | 0.00154 ± 0.00051 s⁻¹ | 0.000169 ± 6.2e-05 s⁻¹ | 0.000951 ± 0.00031 s⁻¹ | 0.00104 ± 0.00021 s⁻¹ | – | – | –
3 | C70G C71G | 3.62e-05 ± 7e-06 s⁻¹ | 5.98e-05 ± 1.4e-05 s⁻¹ | 3.62e-05 ± 9.7e-06 s⁻¹ | 2.86e-05 ± 7.6e-06 s⁻¹ | 3.85e-05 ± 1.4e-05 s⁻¹ | – | –
4 | U46A U56A | 0.001 ± 0.00013 s⁻¹ | 0.000307 ± 7e-05 s⁻¹ | 0.000533 ± 0.00015 s⁻¹ | 0.000853 ± 0.00014 s⁻¹ | – | 1800 ± 490 µM | –
5 | G51U U56C | < 1e-05 s⁻¹ | < 1e-05 s⁻¹ | – | – | < 1e-05 s⁻¹ | – | < 1e-05 s⁻¹
6 | A33U G37U | < 1e-05 s⁻¹ | – | – | – | < 1e-05 s⁻¹ | – | –
7 | A12C C67A | 0.00471 ± 0.0013 s⁻¹ | 0.00125 ± 0.0002 s⁻¹ | 0.0034 ± 0.00084 s⁻¹ | 0.00467 ± 0.00054 s⁻¹ | 0.000456 ± 7.2e-05 s⁻¹ | 1180 ± 470 µM | 0.000204 ± 1.9e-05 s⁻¹
8 | U56G U65C | 0.000622 ± 6.2e-05 s⁻¹ | – | 0.000169 ± 3.3e-05 s⁻¹ | 0.000366 ± 0.00011 s⁻¹ | – | 6800 ± 1000 µM | –
9 | A15U G66U | 0.000139 ± 1.2e-05 s⁻¹ | 6.31e-05 ± 9.8e-06 s⁻¹ | 0.000153 ± 4.4e-05 s⁻¹ | 0.000127 ± 1.5e-05 s⁻¹ | – | 717 ± 180 µM | –
10 | A14G U45C | 0.00289 ± 0.0011 s⁻¹ | 0.00149 ± 0.00031 s⁻¹ | 0.00215 ± 0.00057 s⁻¹ | – | 0.000403 ± 9.2e-05 s⁻¹ | – | 0.000196 ± 4.6e-05 s⁻¹
11 | G41A A53C | 0.000213 ± 5.7e-05 s⁻¹ | 8.67e-05 ± 2.5e-05 s⁻¹ | 0.000101 ± 2.7e-05 s⁻¹ | 0.000202 ± 3.9e-05 s⁻¹ | – | – | –
12 | G40C C70G | 0.000147 ± 2.2e-05 s⁻¹ | 5.48e-05 ± 8.7e-06 s⁻¹ | 0.000163 ± 2.9e-05 s⁻¹ | 0.000128 ± 1.3e-05 s⁻¹ | – | 973 ± 420 µM | –
13 | C16A G66C | 6.9e-05 ± 1.7e-05 s⁻¹ | – | – | 2.41e-05 ± 1.1e-05 s⁻¹ | – | – | < 1e-05 s⁻¹
14 | G32A G66U | 0.000161 ± 4.6e-05 s⁻¹ | 4.96e-05 ± 1.7e-05 s⁻¹ | 5.52e-05 ± 1.1e-05 s⁻¹ | 0.000118 ± 1.6e-05 s⁻¹ | – | – | –
15 | G41U U46A | 0.000481 ± 0.0001 s⁻¹ | 9.28e-05 ± 1.2e-05 s⁻¹ | 0.000324 ± 5.4e-05 s⁻¹ | 0.000362 ± 5.7e-05 s⁻¹ | 4.83e-05 ± 1.9e-05 s⁻¹ | 2400 ± 860 µM | –
16 | A14U C50U C58U G60U | < 1e-05 s⁻¹ | < 1e-05 s⁻¹ | – | – | – | – | < 1e-05 s⁻¹
